Non-standard residues stand in square brackets, D forms with d. No end group written: not given here. pT = C[C@@H](OP(=O)(O)O)[C@H](N)C(=O)O

Consider 3 molecules from patent US20240059766A1 (VOYAGER THERAPEUTICS, published 2024).

The target in test [1] is T1, Tau191-214 phospho-peptide (pS199) (human, pS199 (phosphoserine); SCBio-4PEG in the ELISA).
T1 construct: also called pS199 peptide
Put plainly: BLI. (In general: In BLI a coated tip is dipped into the sample, and binding shifts an interference pattern.)

For test [2], the target named is T2, AT270 peptide (pT181; Tau172-186) (human).
T2 peptide: PAKTPPAPK[pT]PPSSG
In words: one point ELISA. Background: An ELISA detects its analyte on a solid surface through an enzyme-linked reagent.

Test [3] has as its target iPHF (UniProt P10636-8 2-441). Put plainly: BLI (Octet), antibody on biosensor tip. As to the method: Anti-human tau antibodies were assessed for affinity for iPHF by Octet (ForteBio, Menlo Park, CA) analysis. A set of recombinant human IgG1 antibodies were prepared with clone-specific variable domain pairs selected from those presented in Table 1 and human IgG1 constant domains. Candidate antibodies were immobilized on biosensor tips (ForteBio) in kinetic buffer (ForteBio). Biosensor tips were then washed before introduction of a solution of iPHF in kinetic buffer for analysis of association and dissociation with candidate antibodies.

Test [4] deals with T3, AT8 peptide (amino acids 195-215 of tau) (human, phospho-peptide; the phosphorylated sites are not stated; immobilized on streptavidin biosensor tips).
T3 peptide: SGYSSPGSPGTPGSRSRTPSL
In words: BLI (Octet), peptide on streptavidin tip. How it is done:
Briefly, phospho-peptides were immobilized on streptavidin biosensor tips and the binding ability of each antibody was assessed using an eight-point concentration gradient.

The target in test [5] is T4, SCBio-4PEG-Peptide (Tau191-214) pS199-old (human, pS199; SCBio-4PEG at the peptide as in the table head).
T4 construct: the suffix old is not explained
T4 sequence (peptide, as listed by the source): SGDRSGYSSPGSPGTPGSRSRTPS
In words: one point ELISA. From the text: (§1) One-point ELISA was used to determine differential binding based on the individual phosphorylation patterns of each peptide. OD values (450 nm) were collected (as shown in Table 13), where a stronger positive signal is shown as a higher OD value, which is indicative of increased binding.

Test [6] addresses T1, Tau191-214 phospho-peptide (pS199). In words: one point ELISA.
Text: as §1

Test [7] concerns the target Tau191-214 phospho-peptide (pS202) (human, pS202 (phosphoserine); SCBio-4PEG in the ELISA). Put plainly: one point ELISA.
Text: as §1

In test [8] the target is Tau191-214 phospho-peptide (pT205) (human, pT205 (phosphothreonine); SCBio-4PEG in the ELISA). In words: one point ELISA.
Text: as §1

Test [9] deals with Tau191-214 phospho-peptide (pS199/pS202) (human, pS199, pS202; SCBio-4PEG in the ELISA). In words: one point ELISA.
Text: as §1

The target of test [10] is Tau191-214 phospho-peptide (pS199/pT205) (human, pS199, pT205; SCBio-4PEG in the ELISA). In words: one point ELISA.
Text: as §1

For test [11], the target named is T5, Enriched paired helical filament (ePHF; sarkosyl insoluble tau) (human, UniProt P10636 2-758, pathological (hyperphosphorylated) tau isolated from brain; sites not stated).
T5 construct: aggregate isolated from AD frontal cortical tissue
T5 sequence (P10636 other isoform, or with tags, fused parts or gaps limits assumed): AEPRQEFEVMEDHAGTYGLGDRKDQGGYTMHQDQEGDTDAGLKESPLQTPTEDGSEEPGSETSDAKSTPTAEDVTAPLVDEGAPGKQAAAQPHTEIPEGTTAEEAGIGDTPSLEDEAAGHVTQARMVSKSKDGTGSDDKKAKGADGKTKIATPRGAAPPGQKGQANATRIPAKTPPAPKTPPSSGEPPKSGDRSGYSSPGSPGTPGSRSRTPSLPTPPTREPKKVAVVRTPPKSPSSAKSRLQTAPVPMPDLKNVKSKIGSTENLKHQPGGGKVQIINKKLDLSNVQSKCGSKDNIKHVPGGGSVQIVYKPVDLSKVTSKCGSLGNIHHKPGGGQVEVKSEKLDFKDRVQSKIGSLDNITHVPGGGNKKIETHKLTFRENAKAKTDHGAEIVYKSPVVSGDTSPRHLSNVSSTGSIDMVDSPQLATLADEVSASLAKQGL
Put plainly: direct ELISA, coated antigen. As to the method:
A set of recombinant human IgG1 antibodies were prepared with clone-specific variable domain pairs selected from those presented in Table 1 and human IgG1 constant domains. These candidate antibodies were analyzed for binding to ePHF and specificity for ePHF over wild type tau by direct ELISA.
For direct ePHF and wildtype tau ELISA, plates were first coated with ePHF or wild type tau. Antigen solutions were prepared in PBS and 50 μL were pipetted into each well. Plates were covered and incubated for one hour at 37° C. or overnight at 4° C. Plates were then washed and blocked by addition of 150 μl of blocking buffer to each well and incubated one hour at room temperature. Plates were then washed before addition of serially diluted candidate antibody samples prepared in blocking buffer. Detection of candidate antibody binding was carried out by washing plates and adding a solution of enzyme-labeled secondary antibody in blocking buffer to each well. Secondary antibody binding was detected by addition of substrate and spectrophotometric analysis of resulting reaction product.

Sequence of iPHF (P10636 other isoform, or with tags, fused parts or gaps): as the sequence (P10636 other isoform, or with tags, fused parts or gaps limits assumed) above

B1: VY020 (antibody, V domains shown)
VH: EVQLVESGGGLVQPGGSLRLSCAASGFTFSSYSMNWVRQAPGKGLEWISYISSSNSTIKYADSVKGRFTISRDNAKNSLYLQMNSLRDEDTAVYYCARRSLGDYWGQGTLVIVSS
VL: EIVLTQSPATLSLSPGERATLSCRASQSVSSYLAWYLQKPGQAPRLLIYDVSNRATGIPARFSGSGSGTDFTLTISRLEPEDFAVYYCQQRRNWPYTFGQGTKLEIK
One may read the Kd as the equilibrium constant for the complex coming apart. As for B1, the binding result in [1], in test [2] and in test [4] was “no binding” in each case. The affinity in test [3], expressed as Kd, was 2.6 nM.

B2: VY003 (antibody, V domains shown)
VH: EVQMVESGGGLVQPGGSLTLSCAASGFTFSSYRMNWVRQAPGKGLEWVSYISSSRSAIYYADSVKGRFTISRDNAKNSLYLQMNSLRDEDTAVYYCATLGIGYWGQGTLVTVSS
VL: DIVMTQTPLSSPVTLGQPASISCRSSQSLVHSDGNTYLSWLQQRPGQPPRLLIYKISNRFSGVPDRFSGSGAGTDFTLKITRVEAEDVGIYYCMQVTQFPRTFGQGTKVEIR
In general, EC50 refers to the midpoint of the concentration-response curve. Read a low EC50 as an effect from little substance. As to B2, the binding result in [1] is reported as “no binding”. Also, the OD450 in test [5] came out at 0.062 OD450 nm; in test [6], 0.065 OD450 nm; in test [7], 0.065 OD450 nm; in [8], 0.06 OD450 nm; in [9], 0.082 OD450 nm; in test [10], 0.119 OD450 nm. This molecule registered an EC50 in [11] of 0.06 nM. The results for the Kd in test [3] and in test [4] were 4.6 nM and 0.0124 nM, respectively.

B3: VY011 (antibody, V domains shown)
VH: QVQLQESGPGLVKPSETLSLTCTVSGGSISNYYWTWIRQPAGKGLEWIGRVYTSGSANYNPSLKSRVTMSVDTSKNQFSLTLSSVTAADTAVYYCARDRGLYYWGQGTLVTVSS
VL: DIVMTQTPLSSLVTLGQPASISCRSSQSLVHSDGNTYLSWLQQRPGQPPRLLIYKISKRFFGVPDRFSGSGAGTDFTLKINRVEAEDVGIYYCMQATQFPLTFGGGTKVEIK
As for B3, in test [2], the binding result is “no binding”. The OD450 in test [7] and in test [8] was 0.06 OD450 nm each time. This molecule displayed an EC50 in test [11] of 0.03 nM. The results for the Kd in test [3] and in [4] were 2 nM and 0.0089 nM, respectively.
